The target of experiment [1] is T1, human gastric inhibitory peptide receptor (GIPR) (human, UniProt P48546 22-466).
T1 sequence (looked up): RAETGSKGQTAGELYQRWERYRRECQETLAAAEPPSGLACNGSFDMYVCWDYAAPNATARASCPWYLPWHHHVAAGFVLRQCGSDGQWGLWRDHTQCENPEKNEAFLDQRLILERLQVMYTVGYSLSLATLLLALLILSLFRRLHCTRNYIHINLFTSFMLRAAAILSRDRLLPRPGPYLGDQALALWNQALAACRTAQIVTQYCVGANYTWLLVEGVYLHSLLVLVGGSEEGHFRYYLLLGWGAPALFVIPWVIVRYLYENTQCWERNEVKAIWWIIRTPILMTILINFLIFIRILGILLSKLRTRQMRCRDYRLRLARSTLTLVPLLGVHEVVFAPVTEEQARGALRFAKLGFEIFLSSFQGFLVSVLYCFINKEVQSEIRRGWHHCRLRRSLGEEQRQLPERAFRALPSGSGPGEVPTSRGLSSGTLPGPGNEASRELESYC
The experiment is described as follows: cell-based or functional assay.

The target in experiment [2] is human GLP-1 receptor (GLP-1R) (human, UniProt P43220 24-463). The experiment is described as follows: cell-based or functional assay.

Numbered stars: 1 amine (or outer) side, 2 acyl side, 3 side chain; on linkers, the order of the positions; unused ones are H or OH. Square brackets hold non-standard residues; d marks the D form. Side chains are listed from the residue outwards. Ends that are not written are not given here. * marks the point of attachment. C18 diacid = O=C(O)CCCCCCCCCCCCCCCCC(=O)*; γGlu = O=C(O)[C@H](CCC(=O)[*:2])N[*:1]; AEEA = NCCOCCOCC(=O)O; Aib = CC(C)(N)C(=O)O

B1: Example 270 (peptide)
peptide: Y[Aib]EGTFTSDYSILLDKK([AEEA-AEEA-γGlu-C18 diacid])AQ[Aib]EFIEYLIEGGPSSG-NH2
modifications: N-terminus assumed
SMILES: CC[C@H](C)[C@H](NC(=O)[C@H](CC(C)C)NC(=O)[C@H](Cc1ccc(O)cc1)NC(=O)[C@H](CCC(=O)O)NC(=O)[C@@H](NC(=O)[C@H](Cc1ccccc1)NC(=O)[C@H](CCC(=O)O)NC(=O)C(C)(C)NC(=O)[C@H](CCC(N)=O)NC(=O)[C@H](C)NC(=O)[C@H](CCCCNC(=O)COCCOCCNC(=O)COCCOCCNC(=O)CC[C@H](NC(=O)CCCCCCCCCCCCCCCCC(=O)O)C(=O)O)NC(=O)[C@H](CCCCN)NC(=O)[C@H](CC(=O)O)NC(=O)[C@H](CC(C)C)NC(=O)[C@H](CC(C)C)NC(=O)[C@@H](NC(=O)[C@H](CO)NC(=O)[C@H](Cc1ccc(O)cc1)NC(=O)[C@H](CC(=O)O)NC(=O)[C@H](CO)NC(=O)[C@@H](NC(=O)[C@H](Cc1ccccc1)NC(=O)[C@@H](NC(=O)CNC(=O)[C@H](CCC(=O)O)NC(=O)C(C)(C)NC(=O)[C@@H](N)Cc1ccc(O)cc1)[C@@H](C)O)[C@@H](C)O)[C@@H](C)CC)[C@@H](C)CC)C(=O)N[C@@H](CCC(=O)O)C(=O)NCC(=O)NCC(=O)N1CCC[C@H]1C(=O)N[C@@H](CO)C(=O)N[C@@H](CO)C(=O)NCC(N)=O
B1: in experiment [1], the “hGIPR cAMP EC50 ratio” value came out at 0.627 and the “hGIPR cAMP Rel EC50” value is 0.328 nM. Moreover, in experiment [2], the “hGLP1R cAMP EC50 ratio” value came to 0.4 and the “hGLP1R cAMP Rel EC50” value was 0.128 nM.

B2: Example 268 (peptide)
peptide: Y[Aib]EGTFTSDYSILLDEK([AEEA-AEEA-γGlu-C18 diacid])AQ[Aib]AFIEYLIEGGPSSG-NH2
modifications: N-terminus assumed
SMILES: CC[C@H](C)[C@H](NC(=O)[C@H](CC(C)C)NC(=O)[C@H](Cc1ccc(O)cc1)NC(=O)[C@H](CCC(=O)O)NC(=O)[C@@H](NC(=O)[C@H](Cc1ccccc1)NC(=O)[C@H](C)NC(=O)C(C)(C)NC(=O)[C@H](CCC(N)=O)NC(=O)[C@H](C)NC(=O)[C@H](CCCCNC(=O)COCCOCCNC(=O)COCCOCCNC(=O)CC[C@H](NC(=O)CCCCCCCCCCCCCCCCC(=O)O)C(=O)O)NC(=O)[C@H](CCC(=O)O)NC(=O)[C@H](CC(=O)O)NC(=O)[C@H](CC(C)C)NC(=O)[C@H](CC(C)C)NC(=O)[C@@H](NC(=O)[C@H](CO)NC(=O)[C@H](Cc1ccc(O)cc1)NC(=O)[C@H](CC(=O)O)NC(=O)[C@H](CO)NC(=O)[C@@H](NC(=O)[C@H](Cc1ccccc1)NC(=O)[C@@H](NC(=O)CNC(=O)[C@H](CCC(=O)O)NC(=O)C(C)(C)NC(=O)[C@@H](N)Cc1ccc(O)cc1)[C@@H](C)O)[C@@H](C)O)[C@@H](C)CC)[C@@H](C)CC)C(=O)N[C@@H](CCC(=O)O)C(=O)NCC(=O)NCC(=O)N1CCC[C@H]1C(=O)N[C@@H](CO)C(=O)N[C@@H](CO)C(=O)NCC(N)=O
For the molecule B2, in experiment [1], the “hGIPR cAMP EC50 ratio” value was 0.851 and the “hGIPR cAMP Rel EC50” value turned out to be 0.239 nM. Further, in experiment [2], the “hGLP1R cAMP EC50 ratio” value turned out to be 0.935 and the “hGLP1R cAMP Rel EC50” value came out at 0.0572 nM.

B3: Example 269 (peptide)
peptide: Y[Aib]EGTFTSDYSILLDEK([AEEA-AEEA-γGlu-C18 diacid])AQ[Aib]AFIEYLIEGG-NH2
modifications: N-terminus assumed
SMILES: CC[C@H](C)[C@H](NC(=O)[C@H](CC(C)C)NC(=O)[C@H](Cc1ccc(O)cc1)NC(=O)[C@H](CCC(=O)O)NC(=O)[C@@H](NC(=O)[C@H](Cc1ccccc1)NC(=O)[C@H](C)NC(=O)C(C)(C)NC(=O)[C@H](CCC(N)=O)NC(=O)[C@H](C)NC(=O)[C@H](CCCCNC(=O)COCCOCCNC(=O)COCCOCCNC(=O)CC[C@H](NC(=O)CCCCCCCCCCCCCCCCC(=O)O)C(=O)O)NC(=O)[C@H](CCC(=O)O)NC(=O)[C@H](CC(=O)O)NC(=O)[C@H](CC(C)C)NC(=O)[C@H](CC(C)C)NC(=O)[C@@H](NC(=O)[C@H](CO)NC(=O)[C@H](Cc1ccc(O)cc1)NC(=O)[C@H](CC(=O)O)NC(=O)[C@H](CO)NC(=O)[C@@H](NC(=O)[C@H](Cc1ccccc1)NC(=O)[C@@H](NC(=O)CNC(=O)[C@H](CCC(=O)O)NC(=O)C(C)(C)NC(=O)[C@@H](N)Cc1ccc(O)cc1)[C@@H](C)O)[C@@H](C)O)[C@@H](C)CC)[C@@H](C)CC)C(=O)N[C@@H](CCC(=O)O)C(=O)NCC(=O)NCC(N)=O
With B3, in experiment [1], the “hGIPR cAMP EC50 ratio” value was 0.825 and the “hGIPR cAMP Rel EC50” value came to 0.257 nM. In experiment [2], the “hGLP1R cAMP EC50 ratio” value was determined as 0.828 and the “hGLP1R cAMP Rel EC50” value was determined as 0.0595 nM.

B4: Example 273 (peptide)
peptide: Y[Aib]EGTFTSDYSILLDKK([AEEA-AEEA-γGlu-C18 diacid])AQ[Aib]AFIEYLIAGG-NH2
modifications: N-terminus assumed
SMILES: CC[C@H](C)[C@H](NC(=O)[C@H](CC(C)C)NC(=O)[C@H](Cc1ccc(O)cc1)NC(=O)[C@H](CCC(=O)O)NC(=O)[C@@H](NC(=O)[C@H](Cc1ccccc1)NC(=O)[C@H](C)NC(=O)C(C)(C)NC(=O)[C@H](CCC(N)=O)NC(=O)[C@H](C)NC(=O)[C@H](CCCCNC(=O)COCCOCCNC(=O)COCCOCCNC(=O)CC[C@H](NC(=O)CCCCCCCCCCCCCCCCC(=O)O)C(=O)O)NC(=O)[C@H](CCCCN)NC(=O)[C@H](CC(=O)O)NC(=O)[C@H](CC(C)C)NC(=O)[C@H](CC(C)C)NC(=O)[C@@H](NC(=O)[C@H](CO)NC(=O)[C@H](Cc1ccc(O)cc1)NC(=O)[C@H](CC(=O)O)NC(=O)[C@H](CO)NC(=O)[C@@H](NC(=O)[C@H](Cc1ccccc1)NC(=O)[C@@H](NC(=O)CNC(=O)[C@H](CCC(=O)O)NC(=O)C(C)(C)NC(=O)[C@@H](N)Cc1ccc(O)cc1)[C@@H](C)O)[C@@H](C)O)[C@@H](C)CC)[C@@H](C)CC)C(=O)N[C@@H](C)C(=O)NCC(=O)NCC(N)=O
As for B4, in experiment [1], the “hGIPR cAMP EC50 ratio” value was found to be 2.15 and the “hGIPR cAMP Rel EC50” value turned out to be 0.079 nM. Further, in experiment [2], the “hGLP1R cAMP EC50 ratio” value worked out at 1.85 and the “hGLP1R cAMP Rel EC50” value was determined as 0.0352 nM.

B5: Example 272 (peptide)
peptide: Y[Aib]EGTFTSDYSILLDKK([AEEA-AEEA-γGlu-C18 diacid])AQ[Aib]AFIEYLIAGGPSSG-NH2
modifications: N-terminus assumed
SMILES: CC[C@H](C)[C@H](NC(=O)[C@H](CC(C)C)NC(=O)[C@H](Cc1ccc(O)cc1)NC(=O)[C@H](CCC(=O)O)NC(=O)[C@@H](NC(=O)[C@H](Cc1ccccc1)NC(=O)[C@H](C)NC(=O)C(C)(C)NC(=O)[C@H](CCC(N)=O)NC(=O)[C@H](C)NC(=O)[C@H](CCCCNC(=O)COCCOCCNC(=O)COCCOCCNC(=O)CC[C@H](NC(=O)CCCCCCCCCCCCCCCCC(=O)O)C(=O)O)NC(=O)[C@H](CCCCN)NC(=O)[C@H](CC(=O)O)NC(=O)[C@H](CC(C)C)NC(=O)[C@H](CC(C)C)NC(=O)[C@@H](NC(=O)[C@H](CO)NC(=O)[C@H](Cc1ccc(O)cc1)NC(=O)[C@H](CC(=O)O)NC(=O)[C@H](CO)NC(=O)[C@@H](NC(=O)[C@H](Cc1ccccc1)NC(=O)[C@@H](NC(=O)CNC(=O)[C@H](CCC(=O)O)NC(=O)C(C)(C)NC(=O)[C@@H](N)Cc1ccc(O)cc1)[C@@H](C)O)[C@@H](C)O)[C@@H](C)CC)[C@@H](C)CC)C(=O)N[C@@H](C)C(=O)NCC(=O)NCC(=O)N1CCC[C@H]1C(=O)N[C@@H](CO)C(=O)N[C@@H](CO)C(=O)NCC(N)=O
With B5, in experiment [1], the “hGIPR cAMP EC50 ratio” value stood at 2.97 and the “hGIPR cAMP Rel EC50” value was 0.0464 nM. Moreover, in experiment [2], the “hGLP1R cAMP EC50 ratio” value turned out to be 1.19 and the “hGLP1R cAMP Rel EC50” value came to 0.0435 nM.

B6: Example 271 (peptide)
peptide: Y[Aib]EGTFTSDYSILLDKK([AEEA-AEEA-γGlu-C18 diacid])AQ[Aib]EFIEYLIEGG-NH2
modifications: N-terminus assumed
SMILES: CC[C@H](C)[C@H](NC(=O)[C@H](CC(C)C)NC(=O)[C@H](Cc1ccc(O)cc1)NC(=O)[C@H](CCC(=O)O)NC(=O)[C@@H](NC(=O)[C@H](Cc1ccccc1)NC(=O)[C@H](CCC(=O)O)NC(=O)C(C)(C)NC(=O)[C@H](CCC(N)=O)NC(=O)[C@H](C)NC(=O)[C@H](CCCCNC(=O)COCCOCCNC(=O)COCCOCCNC(=O)CC[C@H](NC(=O)CCCCCCCCCCCCCCCCC(=O)O)C(=O)O)NC(=O)[C@H](CCCCN)NC(=O)[C@H](CC(=O)O)NC(=O)[C@H](CC(C)C)NC(=O)[C@H](CC(C)C)NC(=O)[C@@H](NC(=O)[C@H](CO)NC(=O)[C@H](Cc1ccc(O)cc1)NC(=O)[C@H](CC(=O)O)NC(=O)[C@H](CO)NC(=O)[C@@H](NC(=O)[C@H](Cc1ccccc1)NC(=O)[C@@H](NC(=O)CNC(=O)[C@H](CCC(=O)O)NC(=O)C(C)(C)NC(=O)[C@@H](N)Cc1ccc(O)cc1)[C@@H](C)O)[C@@H](C)O)[C@@H](C)CC)[C@@H](C)CC)C(=O)N[C@@H](CCC(=O)O)C(=O)NCC(=O)NCC(N)=O
Regarding B6, in experiment [1], the “hGIPR cAMP EC50 ratio” value stood at 0.614 and the “hGIPR cAMP Rel EC50” value is 0.334 nM. Further, in experiment [2], the “hGLP1R cAMP EC50 ratio” value is 1.35 and the “hGLP1R cAMP Rel EC50” value was 0.0352 nM.

The values are drawn from patent publication US20220048967A1 (published 2022).
